Data published in the nanobody polyreactivity screen of Harvey et al. (2022).

Assay: yeast display, Sf9 membrane polyspecificity reagent, FACS + sequencing; frameworks hold sequencing errors
How it was run: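 Nanobodies from a synthetic yeast display library (Saccharomyces cerevisiae BJ5465), induced 36–48 hours with galactose, were stained 1 hour at 4 °C with 10% biotinylated, detergent-solubilized Sf9 membrane reagent, enriched on streptavidin microbeads, then FACS-sorted. Anti-HA (expression) and streptavidin (reagent binding) fluorescence set low and high (top ~1%) gates. Polyreactivity labels come from the gate of origin. Genes were colony-PCR amplified, MiSeq 2 × 250 sequenced and filtered by CDR length.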

Sequence	polyreactivity (PSR sort gate)
QVQLVESGGGLVQAGGSLRLSCAASGITFPGNAMGWYRQAPGKERELVAGISDGDSTNYADSVKGRFTISRDNAKNTVYLQMNSLKPEDTAVYYCNAQGTTETSGGGFFRGMDYWGQGTQVTVSS	low polyreactivity
QVQLVESGGGLVQAGGSLRLSCAASGRTFQGYTMGWYRQAPGKERELVAAITGGVGSTYYADSVKGRFTISRDNAKNTVYLQMNSLKPEDTAVYYCNTVSYGYTDLYIFYTGYYYWGQGTQVTVSS	low polyreactivity
QVQLVESGGGLVQAGGSLSLSCAASGSTFVGYAMGWYRQAPGKEREFVAAITRGGSTNYADSVKGRFTISRDNAKNTVYLQMNSLNPEDTAVYYCAARDRREGFNFDYWGQGTQVTVSS	low polyreactivity
QVQLVESGGGLVQAGGSLRLSCAASGIIFYPNAMGWYRQAPGKERELVAAITSDGSTYYADSVKGRFTISRDNAKNTVYLQMNSLKPEDTAVYYCAAWDDYGYDYWGQGTQVTVSS	low polyreactivity
QVQLVESGGGLVQAGGSLRLSCAASGIILYGYDMGWYRQAPGKERELVAAISSSGGSTYYADSVKGRFTISRDNAKNTVYLQMNSLKPEDTAVYYCAASKRYYGQLLTGGYYGYYYCGQGTQVTVSS	high polyreactivity
QVQLVESGGALVQAGGRLRLSCAASGSTFYTYAMGWYRHAPGKEREIVAAISWSDDSTYYADSVKGRFTISRDNAKNTVYLQMTSLKPEDTAVYYCAAEWGQRGGGGYYYWGQGTQVTVSS	low polyreactivity
QVQLVESGGGLVQAGGSLRLSSAASGFISPSYALGWYRPAPGTERELDAAIRSSDGSTYYADSVKGRFTISRDTAMNSVYLQMNSLKPEDTAVYYCAGGGSYYRDDYWGQGTQVTVSS	low polyreactivity
QVQLVESGGGLVQAGGSLRLSSAASGFTFVGYAMGWSRQAPGKERELVAAITGRGGTTYYADSVKGRFTISRDNAKNTVYLQMNSLKPEDTSVYYCAADTPSFWTEVDSWGQGTQVTLSS	low polyreactivity
QVQLVESGGGLVQAGGSLRLSCAASGRIFVRYDMGWYRQAPGKERELVAAISSSDGSTYYADSVKGRFTISRDNAKNTVYLQMNSLKPEDTAVYYCNADVSLDDYDYWGQGTQVTVSS	low polyreactivity
QVQLVESGGGLVQAGGSLRLSCAASGGIFSRYAMGWYRQAPGKEREFVAAISFSGASTYYADSVKGRFTISRDNAKYTVYLQMNSLKPEDTAVYYCAAYWDAEGRRYTRLDYWGQGTQVTVSS	low polyreactivity
QVQLVESGGGLVQAGGSLRLSCAASGITLDRYDMGWYRQAPGKERELVAAISRSGVRTYYADSVKGRFTISRDNAKNTVYLQMNSLKPEDTAVYYCNKGYARRYASGYDYWGQGTQVTVSS	high polyreactivity
QVQLVESGGGLVQAGGSLRLTCAASGFTVHNKVMGWYRQAPGKERELVATISKSGGSTYYADSVKGRFTISRDNAKNTVYLEMNSLKPVDTAVYYCARRYGDYGRYGYWGQGTQVTVSS	high polyreactivity
QVQLVESGGGLVQAGGSLRISCAASGFIIYGYVMGWYRQAPGKERELVAAINSSSGRTYYADSVKGRFTISRDNAKNTVYLQMNSLKPEDTAVYYCAAYYYCSYDGTPYDYWGQGTQVTVSS	low polyreactivity
QVQLVESGGGLVQAGGSLRLSCAASGGTFFAYAMGWYRQAPGERELVAAISWSGDSTYYADSVKGRFTISRDNAKNTVYLQMNSLKPEDTAVYYCAADYGFEYYYWGQGTQVTVSS	high polyreactivity
QVQLVESGGGLVKAGGSLRLSCAASGFIFVYYAMGWYRQAPGKERELVARISWRGGRTYYADSVKGRFTISRDNAKNTVYLQMNSLKPEDTAVYYCNADFWNSHVWYDYWGQGTQVTVSS	high polyreactivity
QVQLVESGGGLVQAGCSLRLSCAASGRTFGTYTKGWYRQAPGKERELVAAIYTRDGSTYYADSVKGRFSISRDNAKNTVYLQMNSLKPDDTAFYYCNAVVRYYDWGYWDYDYWGQGTQVTVSS	low polyreactivity

Sequence	polyreactivity (PSR sort gate)
QVQLVESGGGLVQAGGSLRLSCAASGRIFAGYAMGWYRQAPGKERELVAAITTGGSTHYADSVKGRFTISRDNAKNTVYLQMNSLKPEDTAVYYCNAKVEFWESWGWLLDDDYWGQGTQVTVSS	low polyreactivity
QVQLVESGGGLVQAGGSLRLSCAASGYIFGWNAMGWYRQAPGKERELVASIRWGGGSTYYADSVKGRFTISRDNAKNTVYLQMNSLKPEDTAVYYCAAKRRYYGPWSRIGYDYWGQGTQVTVSS	low polyreactivity
QVQLVESGGGLVQAGGSLRLSCAPSGITFWYYAMGWYRQAPGKERELVAAINKSGGRTYYADSVKGRFTISRDNAKNTVYLQMNSLKPEDTAVYYCAAPRSRSRTSRFDYWGQGTQVTVSS	high polyreactivity
QVQLVESGGGLVQAGGSLRLSCAASGGIFNINAMGWYRQAPGKERELVAGINWSDTGTYYADSVKGRFTISRDNAKNTVYLQMNSLKPEDTAVYDCAVSGYPVYITYVSYDYDYWGQGTQVTVSS	low polyreactivity
QVQLVESGGGLVQEGGSLRLSCAASGRTFGYYAMGWYRQAPGKERELVAAITRNGGRTYYADSVKGRFTISRDNAKNTVYLQMNSLKPEDTAVYYCAKDQYKPEAFYYWGQGTQVTVSS	high polyreactivity
QVQLVESGGGLVQAGGSLRLSCAASGRTFVWNVMGWYRQAPGKEREFVAAISGGSTYYADSVKGRFTISRDNAMNTVYLEMNSLKPEDTAVYYCADASKLHPRYEYWGQGTQVTVSS	low polyreactivity
QVQLVESGGGLVQAGGSLRLSCAASGRTFLGYAMGWYRQAPGKERELVAAISYSGSSTYYADSVKGRFTISRDNAKNTVYLQMNSLKPEDTAVYYCAAQFYFLFDYWGQGTQVTVSS	low polyreactivity
QVQLVESGGGLVQAGGRLRLSCAASGSTFAINAMGWYRQAPGKERELVAAITWSGGSTYYADSVKGRFTISRDNAKNTVYLQMNSLKPEDTAVYYCNAKSYRHLLYIPYKYNYWGQGTQVTVSS	high polyreactivity
QVQLVESGGGLVQAGGSLRLSCAASGYTFKRYAMGWSRQAPGKERELVAAISSSGSSTYYADSVKGRFTISRDNAKNTVYLQMNSLKPEDTAVYYCAAVYRYGYWGQGTQVTVSS	high polyreactivity
QVQLVESVGGLVQAGGSLRLSCAASGFTFTYNAMGWYRQAPGKERELVAAISRNGGRTYYADSVKGRFTISRDNAKNTVYLQMNSLKPEDTAVYYCNAVYYYYYWRVSIYDYWGQGTQVTVSS	high polyreactivity
QVQLVESGGGLVQAGGSLRLSCAASGRIFSYYAMGWYRQAPGKERELVATINWRADTYYADSVKGRFTISRDNAKKTVYLQMNSLKPEDSAVYYCAKRPRPTDKYDYWGQGTQVTVSS	high polyreactivity
QVQLVESGGGLVQAGGSLRLSCAASGSIFPWYAMGWYRQEPGKERELVAAISKSGAGTYYADSVKGRFTISRDTAKNTVYLQMNSLKPEDTAVYYCNARWRSNRAARYDFWGQGTQVTVSS	high polyreactivity
QVQLVESGGGLVQAGGSLRLSCAASGSTFYCYVMGWYRQAPGKERALVAAISSGGGTYYADSVKGRFTISRDNAKNTVYLQMNSLKPEDTAVYYSAADASDGQSWYEDYEYDYWGQGTQVTVSS	low polyreactivity
QVQLVESGGGLDQAGGSLRLSCAASGSTFVLNAMGWYRQAPGKERDLVAAITSNGGRTYYADSVKGRFTISRDNAKNTVYLQMNSLKPEDTAVYYCNAVKTHRVRVHGWDYGYWGQGTQVTVSS	high polyreactivity
QVQLVESGGGLVQAGGSLRLSCAASGSTFSYAMGWYRQAPGKERELVAAITIGGRTSYADSVKGRFTISRDNAKNTVYLQMNSLKPEDTAVYYCAAEGYYPVYYYVYYGYDYWGQGTQVTVSS	low polyreactivity
